The values below come from patent US20220193133A1 (CENTURY THERAPEUTICS, published 2022).

For orientation: Kd means a measure of binding affinity in units of concentration. The low end stands for a tighter complex, the high end for a looser complex. The term koff denotes a measure of how fast the partners let go of each other. Low values mean a long-lived complex, high ones a short-lived complex. What is called kon is the second-order rate constant of association. A higher kon goes with fast association.

Read-outs that look alike come from different tables or passages of the source.

B3: humanized B11 VHH CAR (hyLYSO_CW_P01_B11) on Nurkat cells (other, not shown: small tags and cut ends)
chain: EVQLLESGGGLVQPGGSLRLSCAASGGIFSGGRMGWFRQAPGKEREFVAAVITRGGSTYYADSVKGRFTISRDNSKNTLYLQMNSLRAEDTAVYYCAASEVTYDEGRYIGTKSTYDTWGQGTQVTVSS
notes: also called B11 (p1649); P1649

Series [1] concerns the target T1, chicken lysozyme (Hen Egg Lysozyme) (chicken, UniProt P00698 19-147, biotinylated).
T1 construct: also called HEL; chicken egg white lysozyme
As to the kind of experiment: flow cytometry, CAR Jurkat cells + 10 ug/mL biotinylated lysozyme, streptavidin-APC, % positive cells. A general note: In flow cytometry, cells or beads pass a laser one at a time.

For series [2], the target named is T2, human lysozyme (human, UniProt P61626 19-148, biotinylated).
T2 construct: also called human lysozyme protein
T2 sequence (looked up): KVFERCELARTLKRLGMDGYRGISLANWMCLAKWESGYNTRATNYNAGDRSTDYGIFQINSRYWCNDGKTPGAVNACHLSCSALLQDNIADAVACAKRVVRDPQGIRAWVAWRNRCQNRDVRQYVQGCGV
Described as above.

The target in series [3] is T1, chicken lysozyme (Hen Egg Lysozyme). As to the kind of experiment: flow cytometry, CAR Nurkat cells + biotinylated HEL, streptavidin-APC, % positive cells.
Series [4] has as its target T3, D04-his tagged VHH (humanized D04).
T3 construct: also called LysoD04.His; D04 his-tagged protein
Kind of series: Octet (BLI) specificity analysis, sample vs analyte. On the technique in general: BLI is a label-free optical method that tracks binding on a fibre tip over time.

Series [5] deals with T4, D04-Fc (humanized D04 VHH Fc fusion).
T4 construct: also called LysoD04.Fc; not shown: Fc
Described as above.

Series [6] concerns the target total human IgG from sera. The series is described as above.
In series [7] the target is Fc-y fragment. The description is as above.
For series [8], the target named is PROT939 (an off target VHH-fc soluble). The series is described as above.
Series [9] deals with the molecule itself. The description is as above.
The target in series [10] is T5, B11-his tagged VHH (humanized B11).
T5 construct: also called B11-his protein; B11 his-tagged protein
Kind of series: Octet (BLI), anti-idiotype VHH-Fc vs his-tagged VHH; table title prints D04-his, its footnote prints B11-his.

The target of series [11] is T3, D04-his tagged VHH (humanized D04). As to the kind of experiment: Octet (BLI), anti-idiotype VHH-Fc vs his-tagged VHH; table title prints B11-his, paragraph 353 ties these values to D04.
Series [12] deals with B3. As to the kind of experiment: flow cytometry, VHH-Fc on CAR Nurkat cells, 3-fold dilutions 50 to 0.02 nM, anti-Fc APC, %Fc positive cells. The source says:
[…] Fc-fusion protein was detected via anti-Fc APC, and the percentage of cells that were positive for this detection method are shown. […] Controls include (i) no VHH-Fc added and (ii) the anti-VHH cocktail detection reagent (far right). The samples shown in the graphs for each protein appear in the order as specified in the legend.

The target in series [13] is T6, B11 protein (humanized B11 VHH as ELISA antigen).
T6 construct: Panning used B11-Fc; the ELISA legend says only 'B11 protein'
Kind of series: periplasmic extract ELISA, absorbance 450 nm, single point.

Series [14] addresses T6, B11 protein (humanized B11 VHH as ELISA …). Described as above. This is another data set of the same source.
The target in series [15] is T7, D04 protein (humanized D04 VHH as ELISA antigen).
T7 construct: Panning used biotinylated D04-Fc; the ELISA legend says only 'D04 protein'
Described as above.

Series [16] has as its target T7, D04 protein (humanized D04 VHH as ELISA …). The description is as above. The source holds these as a separate data set.
The target in series [17] is T6, B11 protein (humanized B11 VHH as ELISA …). The series is described as above. The source holds these as a separate data set.
The target of series [18] is T7, D04 protein (humanized D04 VHH as ELISA …). Described as above. This is another data set of the same source.

T1 sequence (P00698 19-147): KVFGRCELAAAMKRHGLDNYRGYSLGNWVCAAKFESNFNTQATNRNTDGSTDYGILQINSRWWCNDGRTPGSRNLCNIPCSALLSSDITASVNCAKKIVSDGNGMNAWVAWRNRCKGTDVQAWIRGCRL

B1: LYSO_CW_P01_B11 VHH CAR (camelid B11) on Jurkat cells (other, not shown: small tags and cut ends)
chain: QVQLVESGGGLVQAGGSLRLSCAASGGIFSGGRMGWFRQAPGKEREFVAAVITRGGSTYYADSVKGRFTISRDNAKNTVYLQMNSLKPEDTAVYYCAASEVTYDEGRYIGTKSTYDTWGQGTQVTVSS
notes: camelid (not humanized) VHH; also called B11(p242)
Turning to B1, the binding result in series [1] is “binds”; in series [2] it was “no binding (tested: 10 ug/mL)”.

B2: p245 (other)
CAR: QVQLVESGGGLVQAGGSLRLSCAASGGIFSGGRMGWFRQAPGKEREFVAAVITRGGSTYYADSVKGRFTISRDNAKNTVYLQMNSLKPEDTAVYYCAASEVTYDEGHYIGTKSTYDTWGQGTQVTVSS
For B2, in series [2], the binding result is recorded as “no binding (tested: 10 ug/mL)”.
Turning to B3, in series [3], the binding result was “binds”.

B4: AMD88 (huD04_CNTY1_D10 anti-idiotype VHH IgG1-Fc fusion) (Fc fusion)
chain: EVQLLESGGGLVQPGGSLRLSCAASGRTSSNYVIGWYRQAPGKEREFVSAISGGGSTYYADSVKGRFTISRDNSKNTLYLQMNSLRAEDTAVYYCATRIYTARGAGDYWGQGTQVTVSS
notes: not shown: IgG1 Fc
Take B4: the Response in series [4] was 0.0923; in series [5], 2.18; in [6], -0.0338; in series [7], -0.0261; in series [8], -0.024; in [9] it was 0.149. Moreover, the Response was -0.0183 in series [10] and 0.289 in series [11]. In [11], this molecule displayed a Kd of 0.0723 µM. Further, in series [11], the koff came to 0.0425 s⁻¹. In series [11], this molecule came in with a kon of 588000 M⁻¹ s⁻¹. The binding result in [12] is recorded as “no binding (tested: 50 nM)”.

B5: huD04_CNTY1_D11 anti-idiotype VHH (periplasmic extract) (VHH)
VHH: EVQLLESGGGLVQPGGSLRLSCAASGSTFSYYYMGWYRQAPGKERELVSAISSGGSIYYADSVKGRFTISRDNSKNTLYLQMNSLRAEDTAVYYCARRTYYGDEADYWGQGTQVTVSS
notes: Screened as periplasmic extract; also called VHH of AMD87
For the molecule B5, the binding result in [13] is reported as “no binding”.

B6: huD04_CNTY2_D12 anti-idiotype VHH (periplasmic extract) (VHH)
VHH: EVQLLESGGGLVQPGGSLRLSCAASGSAFSSNAMGWYRQAPGKERELVSAISSGGSTNYADSVKGRFTISRDNSKNTLYLQMNSLRAEDTAVYYCAARNPLTYTALVSNAPSGDYYLFEYRLWGQGTQVTVSS
notes: Screened as periplasmic extract; also called VHH of AMD85
Take B6: the figures for the binding result in [14] and in series [15] were “no binding” and “binds”, respectively.

B7: AMD77 (huD04_CNTY1_A11 anti-idiotype VHH IgG1-Fc fusion) (Fc fusion)
VHH: EVQLLESGGGLVQPGGSLRLSCAASGFTSSNYVMGWYRQAPGKEREFVSAIGSGGSTYYADSVKGRFTISRDNSKNTLYLQMNSLRAEDTAVYYCAAEIYTSGARDYWGQGTQVTVSS
modifications: Biotinylated in the FIG. 18 and FIG. 19 assays; the biotin sites are not stated.
notes: not shown: IgG1 Fc (and any hinge or linker to it)
Regarding B7, the Response was 0.337 in series [4]; 2.67 in [5]; -0.0155 in series [6]; -0.009 in series [7]; -0.0053 in series [8]; 0.497 in [11]. The same molecule had a Kd in [11] of 0.00208 µM. The molecule further came in with a koff in series [11] of 0.00145 s⁻¹. The kon in [11] was determined as 696000 M⁻¹ s⁻¹.

B8: LYSO_CW_P01_D04 VHH CAR (camelid D04) on Jurkat cells (other, not shown: small tags and cut ends)
chain: QVQLVESGGGLVQAGGSLRLSCAASGRIFSIYDTIGWFRQAPGKEREFVAATITTAGITTYDDSVKGRFTISRDNAKNTVYLQMNSLKPEDTAVYYCYVRVGRGDYWGQGTQVTVSS
notes: camelid (not humanized) VHH; also called D04 (p244)
Regarding B8, the results for the binding result in series [1] and in series [2] were “binds” and “no binding (tested: 10 ug/mL)”, respectively.

B9: humanized D04 VHH CAR (hyLYSO_CW_P01_D04) on Nurkat cells or primary T cells (other, not shown: small tags and cut ends)
chain: EVQLLESGGGLVQPGGSLRLSCAASGRIFSIYDTIGWFRQAPGKEREFVAATITTAGITTYDDSVKGRFTISRDNSKNTLYLQMNSLRAEDTAVYYCYVRVGRGDYWGQGTQVTVSS
notes: also called D04 (p1648); P1650
For the molecule B9, in series [3], the binding result is given as “binds”.

B10: huB11_CNTY1_E11 anti-idiotype VHH (periplasmic extract) (VHH)
VHH: EVQLLESGGGLVQPGGSLRLSCAASGFAFSDYVMGWYRQAPGKEREFVSAIRSTTSTYYADSVKGRFTISRDNSKNTLYLQMNSLRAEDTAVYYCAADVWSGYEYDYWGQGTQVTVSS
notes: Screened as periplasmic extract; also called VHH of AMD75
In the case of B10, the binding result in series [16] is recorded as “no binding”.

B11: huB11_CNTY1_B11 anti-idiotype VHH (periplasmic extract) (VHH)
VHH: EVQLLESGGGLVQPGGSLRLSCAASGLAFSSYAMGWYRQAPGKEREFVSVISGTGETLYADSVKGRFTISRDNSKNTLYLQMNSLRAEDTAVYYCAADVWSGYEYDYWGQGTQVTVSS
notes: Screened as periplasmic extract; also called VHH of AMD76
For B11, the binding result in series [17] was “binds”; in series [16], “no binding”.

B12: p253 (other)
CAR: QVQLVESGGGLVQAGGSLRLSCAASGSSFSIYDVGWFRQAPGKEREFVAATIETGGHTSYADSVKGRFTISRDNAKNTVYLQMNSLKPEDTAVYYCYAKIVYDQGPSYYYWGQGTQVTVSS
As to B12, the binding result in [1] was “binds”; in [2], “no binding (tested: 10 ug/mL)”.

B13: huD04_CNTY1_B12 anti-idiotype VHH (periplasmic extract) (VHH)
VHH: EVQLLESGGGLVQPGGSLRLSCAASGRTSSNYVMGWYRQAPGKEREGVSAITSGGSTYYADSVKGRFTISRDNSKNTLYLQMNSLRAEDTAVYYCAANLYSRTGAYDYWGQGTQVTVSS
notes: Screened as periplasmic extract; also called VHH of AMD82
For B13, in series [13], the binding result is “no binding”.

B14: huD04_CNTY1_D10 anti-idiotype VHH (periplasmic extract) (VHH)
VHH: EVQLLESGGGLVQPGGSLRLSCAASGRTSSNYVIGWYRQAPGKEREFVSAISGGGSTYYADSVKGRFTISRDNSKNTLYLQMNSLRAEDTAVYYCATRIYTARGAGDYWGQGTQVTVSS
notes: Screened as periplasmic extract; also called VHH of AMD88
As to B14, in [13], the binding result is given as “no binding”.

B15: huD04_CNTY1_D12 anti-idiotype VHH (periplasmic extract) (VHH)
VHH: EVQLLESGGGLVQPGGSLRLSCAASGFTSSNYVMGWYRQAPGKEREGVSAISSSGRTYYADSVKGRFTISRDNSKNTLYLQMNSLRAEDTAVYYCAAAYYSGYGETDYWGQGTQVTVSS
notes: Screened as periplasmic extract; also called VHH of AMD86
Turning to B15, the results for the binding result in series [13] and in series [18] were “no binding” and “binds”, respectively.

B16: p248 (other)
CAR: QVQLVESGGGLVQAGGSLRLSCAASGSIFSFYDVGWFRQAPGKEREFVAASITKGGGTYYVDSVKGRFTISRDNAKNTVYLQMNSLKPEDTAVYYCALATPHGYDFWGQGTQVTVSS
As to B16, the binding result in series [1] and in series [2] was “no binding (tested: 10 ug/mL)” each time.

B17: huD04_CNTY2_D02 anti-idiotype VHH (periplasmic extract) (VHH)
VHH: EVQLLESGGGLVQPGGSLRLSCAASGFTFRSYAMGWYRQAPGKEREGVSVISSGGTPSYADSVKGRFTISRDNSKNTLYLQMNSLRAEDTAVYYCDAIMGLVEADYVSTGTYEYTAYAYWGQGTQVTVSS
notes: Screened as periplasmic extract; also called VHH of AMD80
Turning to B17, the binding result is listed as “no binding” in series [14] and “binds” in series [15].
